# From US20260116920A1 (PEPTIDREAM, published 2026)
# Starred links: 1 amine or outer side, 2 acyl side, 3 side chain; linkers in the order of their positions; H or OH if unused. Positions of bridges follow the written chain, without caps; N, C: chain ends. Non-standard residues stand in square brackets, D forms with d. Primed or numbered codes have the meaning given here. No end group written: not given here. *: point of attachment. MeF3COO(PEG4Me) = (S)-3-(3-((2,5,8,11-tetraoxatridecan-13-yl)carbamoyl)phenyl)-2-(methylamino)propanoic acid, COCCOCCOCCOCCNC(=O)c1cccc(C[C@@H](C(=O)[*:2])N(C)[*:1])c1; MeF4COO(PEG4Me)″ = N-methyl-4-carboxy-Phe with the carboxyl amidated by a methyl-capped PEG4 amine, COCCOCCOCCOCCNC(=O)c1ccc(C[C@@H](C(=O)[*:2])N(C)[*:1])cc1; F3COO(PEG4Me) = (S)-3-(3-((2,5,8,11-tetraoxatridecan-13-yl)carbamoyl)phenyl)-2-aminopropanoic acid, COCCOCCOCCOCCNC(=O)c1cccc(C[C@H](N[*:1])C(=O)[*:2])c1; F3COO(PEG4Me)″ = 3-carboxy-Phe with the carboxyl amidated by a methyl-capped PEG4 amine, COCCOCCOCCOCCNC(=O)c1cccc(C[C@H](N[*:1])C(=O)[*:2])c1; E(PEG4Me) = (S)-18-amino-15-oxo-2,5,8,11-tetraoxa-14-azanonadecane-19-oic acid, COCCOCCOCCOCCNC(=O)CC[C@H](N[*:1])C(=O)[*:2]; MeF4COO(PEG4Me) = N-methyl Phe with 4-carboxamide to PEG4Me amine, COCCOCCOCCOCCNC(=O)c1ccc(C[C@@H](C(=O)[*:2])N(C)[*:1])cc1; KCOpipzaa = N6-(4-(carboxymethyl)piperazine-1-carbonyl)-L-lysine, O=C(NCCCC[C@H](N[*:1])C(=O)[*:2])N1CCN(CC(=O)[*:3])CC1; Phe(4-OMe)(3) = (S)-2-amino-3-(4-methoxyphenyl)propanoic acid (source code F4OMe), COc1ccc(C[C@H](N[*:1])C(=O)[*:2])cc1; F4aao = (S)-2-amino-3-(4-(carboxymethoxy)phenyl)propanoic acid, O=C([C@H](Cc1ccc(OCC(=O)[*:3])cc1)N[*:1])[*:2]; MePEG4c = K(MePEG4c) = (S)-20-amino-14-oxo-2,5,8,11-tetraoxa-15-azahenicosane-21-oic acid, COCCOCCOCCOCCC(=O)*; Phe(4-OMe) = F4OMe = (S)-2-amino-3-(4-methoxyphenyl)propanoic acid, COc1ccc(C[C@H](N[*:1])C(=O)[*:2])cc1; Trp(1-CH2CO) = O=C([C@H](Cc1cn(CC(=O)[*:3])c2ccccc12)N[*:1])[*:2]; MeF3COO(PEG4Me)″ = N-methyl analogue of F3COO(PEG4Me); Trp(5-Cl) = N[C@@H](Cc1c[nH]c2ccc(Cl)cc12)C(=O)O; Nle(6-morpholino) = N[C@@H](CCCCN1CCOCC1)C(=O)O; Trp(7-aza) = N[C@@H](Cc1c[nH]c2ncccc12)C(=O)O; NMePhe(3-Cl) = CN[C@@H](Cc1cccc(Cl)c1)C(=O)O; NMePhe(4-F) = CN[C@@H](Cc1ccc(F)cc1)C(=O)O; 3Pal(6-NH2) = Nc1ccc(C[C@H](N)C(=O)O)cn1; NMeW = CN[C@@H](Cc1c[nH]c2ccccc12)C(=O)O; NMeY = CN[C@@H](Cc1ccc(O)cc1)C(=O)O; Lys(Me2) = CN(C)CCCC[C@H](N)C(=O)O; NMeR = CN[C@@H](CCCNC(=N)N)C(=O)O; NMeF = CN[C@@H](Cc1ccccc1)C(=O)O; 4Pal = N[C@@H](Cc1ccncc1)C(=O)O
# Target: T1, human transferrin receptor (hTfR) (human, UniProt P02786 89-760)
# T1 construct: used as 0.5 uM hTfR dimer solution, immobilised on an NTA sensor chip (Ni capture plus EDC/NHS coupling); also called human TfR; TfR1
# Assay: SPR; B = KD 1-100 nM
# Description: NTA sensor chip (Global Life Sciences Technologies Japan K.K.) was inserted into BiacoreT200 (Global Life Sciences Technologies Japan K.K.), then the priming operation was performed three times by using running buffer containing: 10 mM HEPES pH 8.0 (Nacalai Tesque, Inc.), 150 mM NaCl (Nacalai Tesque, Inc.), 0.05% Tween 20 (Nacalai Tesque, Inc.), 0.1% BSA (SIGMA-ALDRICH) and 1.0% DMSO (FUJIFILM Wako Pure Chemical Corporation), and equilibrated at a flow rate of 30 μL/min. 350 mM EDTA solution was reacted at a flow rate of 10 μL/min for 60 seconds, 0.5 mM […] solution (Kishida Chemical Co., Ltd.) was reacted at a flow rate of 10 μL/min for 60 seconds, and then the NTA sensor chip was washed with 3 mM EDTA solution (Nacalai Tesque, Inc.) at a flow rate of 10 μL/min for 60 seconds. After mixing 50 μL each of 60 mM EDC solution (Global Life Science Technologies Japan K.K.) and 650 mM NHS solution (Global Life Science Technologies Japan K.K.), the reaction was carried out at a flow rate of 10 μL/min for 420 seconds. 150 μL of 0.5 μM hTfR dimer solution was prepared by dilution with running buffer and reacted at a flow rate of 10 μL/min for 300 seconds to immobilize hTfR on the NTA sensor chip. For the human transferrin receptor (hTfR), recombinant hTfR described in Example 2 of WO2018/124121 was used. After immobilization, capping was performed by reacting with 1.0 M ethanolamine solution (Global Life Sciences Technologies Japan K.K.) at a flow rate of 10 μL/min for 420 seconds. Peptide lysate prepared in DMSO solution to 10 mM was diluted with running buffer to be a final concentration of 10 μM peptide lysate, then peptide solutions of 100 nM, 50 nM, 25 nM, 10 nM, and 5 nM were prepared. Using the above samples, the kinetics of the peptide against hTfR was obtained by SPR measurement.
# The kinetic evaluation model was single-cycle kinetics, and curve fitting was performed using Biacore T200 Evaluation Software Version 3.0 (Global Life Science Technologies Japan K.K.). The binding of the peptide to hTfR was evaluated by performing curve fitting on the obtained sensorgram by least squares method and obtaining the KD value.
# T1 sequence (P02786 89-760 limits assumed): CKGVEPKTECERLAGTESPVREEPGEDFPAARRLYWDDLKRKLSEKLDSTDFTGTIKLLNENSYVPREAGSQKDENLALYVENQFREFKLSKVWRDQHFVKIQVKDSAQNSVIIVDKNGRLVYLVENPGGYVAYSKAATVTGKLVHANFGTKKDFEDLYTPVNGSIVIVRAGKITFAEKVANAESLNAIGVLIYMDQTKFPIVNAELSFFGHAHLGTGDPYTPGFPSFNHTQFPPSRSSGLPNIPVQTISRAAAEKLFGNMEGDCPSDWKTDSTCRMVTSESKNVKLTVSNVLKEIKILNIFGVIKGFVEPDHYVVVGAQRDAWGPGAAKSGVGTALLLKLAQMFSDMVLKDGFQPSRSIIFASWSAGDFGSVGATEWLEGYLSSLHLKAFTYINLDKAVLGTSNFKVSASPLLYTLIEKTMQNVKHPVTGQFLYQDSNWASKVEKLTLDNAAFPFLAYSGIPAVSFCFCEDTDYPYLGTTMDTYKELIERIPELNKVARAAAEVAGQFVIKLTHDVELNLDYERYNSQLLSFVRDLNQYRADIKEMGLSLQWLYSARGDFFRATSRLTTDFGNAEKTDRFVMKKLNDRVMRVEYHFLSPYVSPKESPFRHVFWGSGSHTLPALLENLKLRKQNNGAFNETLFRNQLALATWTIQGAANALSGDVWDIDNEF
row,KD,Binder
1,1 to 100 nM,{CH2CO}-AV[NMePhe(3-Cl)]VWNY[Phe(4-OMe)(3)]IIRRF[NMeY]C (thioether N-15; not fully specified (C-terminus)) [894_3149]
2,1 to 100 nM,"{CH2CO}-AV[NMePhe(3-Cl)]VWNY[F4aao]II[E(PEG4Me)]QF[NMeY]C-NH2 (thioether N-15; also: linker PEG4c, attachment site not given here) [849_0408]"
3,1 to 100 nM,"{CH2CO}-AV[NMePhe(3-Cl)]VWNY[F4aao]II[E(PEG4Me)][KCOpipzaa]F[NMeY]C-NH2 (thioether N-15; also: linker PEG4c, place not given here) [849_0401]"
4,1 to 100 nM,"{CH2CO}-AV[NMePhe(3-Cl)]VWNY[F4aao]II[E(PEG4Me)]R[E(PEG4Me)][NMeY]C-NH2 (thioether N-15; also: linker G-ds-ds-ds-ds-ds, attachment site not given here) [849_0410]"
5,1 to 100 nM,"{CH2CO}-AV[NMePhe(3-Cl)]VWN[3Pal(6-NH2)][F4aao]II[E(PEG4Me)][KCOpipzaa][4Pal][NMeY]C-NH2 (thioether N-15; also: linker PEG4c, attachment site not given here) [849_0403]"
6,1 to 100 nM,"{CH2CO}-AV[NMePhe(3-Cl)]V[Trp(1-CH2CO)]N[3Pal(6-NH2)][F4aao]II[E(PEG4Me)]R[4Pal][NMeY]C-NH2 (thioether N-15; also: linker PEG4c, place not given here) [849_0402]"
7,1 to 100 nM,"{CH2CO}-AV[NMePhe(3-Cl)]VWNY[F4aao]II[E(PEG4Me)]R[E(PEG4Me)][NMeY]C-NH2 (thioether N-15; also: linker PEG4c, attachment site not given here) [849_0409]"
8,1 to 100 nM,"{CH2CO}-AV[NMeF]V[Trp(5-Cl)]NYYIIR[dR]FYC-NH2 (thioether N-15; not fully specified (residue 14); also: linker PEG4c, place not given here) [894_0252]"
9,1 to 100 nM,"{CH2CO}-AV[NMePhe(3-Cl)]VWNY[F4aao]IIQR[F3COO(PEG4Me)″][MeF4COO(PEG4Me)″]C-NH2 (thioether N-15; also: linker PEG4c, attachment site not given here) [849_0412]"
10,1 to 100 nM,"{CH2CO}-AV[NMePhe(4-F)]V[NMeW]NYYIIR[dR]FYC-NH2 (thioether N-15; not fully specified (residue 14); also: linker PEG4c, place not given here) [894_0260]"
11,1 to 100 nM,"{CH2CO}-AV[NMePhe(3-Cl)]VWNY[F4aao]II[E(PEG4Me)]KF[NMeY]C-NH2 (thioether N-15; also: linker PEG4c, attachment site not given here) [849_0406]"
12,1 to 100 nM,{CH2CO}-AV[NMeF]VWNYYIIK(MePEG4c)RFYC-NH2 (thioether N-15; not fully specified (residue 14)) [894_0263]
13,1 to 100 nM,"{CH2CO}-AV[NMePhe(3-Cl)]V[Trp(7-aza)]NY[F4aao]II[E(PEG4Me)]R[F3COO(PEG4Me)][NMeY]C-NH2 (thioether N-15; also: linker PEG4c, attachment site not given here) [849_0415]"
14,1 to 100 nM,"{CH2CO}-AV[NMePhe(3-Cl)]V[Trp(7-aza)]NY[F4aao]IIQR[F3COO(PEG4Me)][MeF4COO(PEG4Me)]C-NH2 (thioether N-15; also: linker PEG4c, attachment site not given here, also called 894_0416) [849_0416]"
15,1 to 100 nM,{CH2CO}-AV[NMeF]VWNYYIIRK(MePEG4c)FYC-NH2 (thioether N-15; not fully specified (residue 14)) [894_0264]
16,1 to 100 nM,"{CH2CO}-AV[NMePhe(3-Cl)]VWNY[F4aao]II[E(PEG4Me)][Nle(6-morpholino)]F[NMeY]C-NH2 (thioether N-15; also: linker PEG4c, attachment site not given here) [849_0405]"
17,1 to 100 nM,"{CH2CO}-AV[NMePhe(3-Cl)]V[Trp(1-CH2CO)]NY[F4aao]II[E(PEG4Me)][KCOpipzaa]F[NMeY]C-NH2 (thioether N-15; also: linker PEG4c, place not given here) [849_0400]"
18,1 to 100 nM,"{CH2CO}-AV[NMePhe(4-F)]V[Trp(5-Cl)]NYYIIR[dR]FYC-NH2 (thioether N-15; not fully specified (residue 14); also: linker PEG4c, place not given here) [894_0256]"
19,1 to 100 nM,"{CH2CO}-AV[NMePhe(3-Cl)]VWNY[F4aao]II[E(PEG4Me)][Lys(Me2)]F[NMeY]C-NH2 (thioether N-15; also: linker PEG4c, attachment site not given here) [849_0407]"
20,1 to 100 nM,"{CH2CO}-AV[NMePhe(3-Cl)]V[Trp(7-aza)]NY[F4aao]IIQR[F3COO(PEG4Me)][MeF3COO(PEG4Me)″]C-NH2 (thioether N-15; also: linker PEG4c, place not given here) [849_0417]"
21,1 to 100 nM,"{CH2CO}-AV[NMePhe(3-Cl)]VWNY[F4aao]II[E(PEG4Me)]RF[NMeY]C-NH2 (thioether N-15; also: linker PEG4c, place not given here) [849_0398]"
22,1 to 100 nM,"{CH2CO}-AV[NMePhe(3-Cl)]V[Trp(7-aza)]NY[F4aao]IIERFYC-NH2 (thioether N-15; not fully specified (residues 11, 14); also: linker PEG4c, place not given here) [849_0418]"
23,1 to 100 nM,{CH2CO}-AV[NMePhe(4-F)]V[Trp(5-Cl)]NY[Phe(4-OMe)]II[NMeR]K(MePEG4c)FYC-NH2 (thioether N-15; not fully specified (residue 14)) [894_0268]
24,1 to 100 nM,"{CH2CO}-AV[NMePhe(3-Cl)]VWNY[F4aao]II[E(PEG4Me)]R[F3COO(PEG4Me)″][NMeY]C-NH2 (thioether N-15; also: linker PEG4c, attachment site not given here) [849_0411]"
25,1 to 100 nM,"{CH2CO}-AV[NMePhe(3-Cl)]VWNY[F4aao]IIQR[F3COO(PEG4Me)][MeF3COO(PEG4Me)″]C-NH2 (thioether N-15; also: linker G-ds-ds-ds-ds-ds, attachment site not given here) [849_0414]"
26,1 to 100 nM,"{CH2CO}-AV[NMePhe(3-Cl)]VWNY[F4aao]IIQR[F3COO(PEG4Me)″][MeF3COO(PEG4Me)]C-NH2 (thioether N-15; also: linker PEG4c, attachment site not given here) [849_0413]"
27,1 to 100 nM,{CH2CO}-AV[NMePhe(4-F)]V[Trp(5-Cl)]NYYII[NMeR]K(MePEG4c)FYC-NH2 (thioether N-15; not fully specified (residue 14)) [894_0267]
